Values quoted from earlier work as cited in PMC3508151.
Where two headings read alike, the source gives them in different places.

Key:
IL-13Rα1 (Homo sapiens) [1] = molecular target: IL-13Rα1 (Homo sapiens) (UniProt P78552); settings: cited from earlier work
IL-13Rα1 (Homo sapiens) [2] = molecular target: IL-13Rα1 (Homo sapiens) (UniProt P78552); settings: cited from earlier work; remark: listed apart in the source

Chain of IL-13Rα1 (Homo sapiens) (P78552 22-343): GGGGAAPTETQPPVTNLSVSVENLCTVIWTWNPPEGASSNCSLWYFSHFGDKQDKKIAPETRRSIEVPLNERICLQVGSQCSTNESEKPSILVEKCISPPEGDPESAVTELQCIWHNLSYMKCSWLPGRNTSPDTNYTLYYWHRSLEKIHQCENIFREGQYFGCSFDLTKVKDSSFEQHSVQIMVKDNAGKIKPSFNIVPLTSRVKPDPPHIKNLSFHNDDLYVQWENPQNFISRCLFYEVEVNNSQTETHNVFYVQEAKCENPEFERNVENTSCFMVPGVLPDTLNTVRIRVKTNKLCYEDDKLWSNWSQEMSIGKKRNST
Chain of IL-4 (P05112 25-153): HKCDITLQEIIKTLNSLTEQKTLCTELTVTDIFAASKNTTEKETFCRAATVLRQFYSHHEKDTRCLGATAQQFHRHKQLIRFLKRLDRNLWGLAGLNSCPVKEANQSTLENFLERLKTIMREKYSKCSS
Chain of IL-13 (P35225 25-146): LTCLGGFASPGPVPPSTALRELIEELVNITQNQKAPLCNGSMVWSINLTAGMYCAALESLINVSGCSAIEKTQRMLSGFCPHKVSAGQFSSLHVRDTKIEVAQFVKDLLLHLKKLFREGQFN

Question: For IL-13, which Kd (IL-13Rα1 (Homo sapiens) [1]) is on record?
Answer: 30 nM

Question: With IL-4 (from UniProt P05112) as the substance, how does the Kd (IL-13Rα1 (Homo sapiens) [2]) read?
Answer: > 1000 nM
